Results taken from patent US20130251728A1 (Regeneron, published 2013).

T1: hGCGR-mmh (human)
T1 construct: also called REGN547; monovalent hGCGR
T1 chain: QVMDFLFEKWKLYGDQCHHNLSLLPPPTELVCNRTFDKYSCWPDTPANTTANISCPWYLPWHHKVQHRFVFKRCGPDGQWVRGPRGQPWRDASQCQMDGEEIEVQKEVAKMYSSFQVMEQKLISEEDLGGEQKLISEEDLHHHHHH

T2: monkey (Macaca fascicularis) GCGR (full-length, on HEK293 reporter cells) (monkey (Macaca fascicularis), UniProt P47871 26-477 (human entry))
T2 chain: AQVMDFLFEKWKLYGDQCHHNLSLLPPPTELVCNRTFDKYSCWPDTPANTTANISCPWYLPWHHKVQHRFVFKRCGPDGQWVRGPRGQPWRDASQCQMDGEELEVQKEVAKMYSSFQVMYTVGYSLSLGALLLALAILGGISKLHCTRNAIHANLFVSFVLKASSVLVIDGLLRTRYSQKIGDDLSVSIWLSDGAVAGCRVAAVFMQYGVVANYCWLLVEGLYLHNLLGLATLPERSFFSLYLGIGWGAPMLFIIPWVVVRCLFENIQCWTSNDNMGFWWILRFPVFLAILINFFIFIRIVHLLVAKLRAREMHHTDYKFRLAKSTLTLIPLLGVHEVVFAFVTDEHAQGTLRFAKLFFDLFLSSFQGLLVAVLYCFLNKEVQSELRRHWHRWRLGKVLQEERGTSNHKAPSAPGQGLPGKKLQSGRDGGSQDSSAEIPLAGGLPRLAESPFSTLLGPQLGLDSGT


Legend:
[1] = biological target: T1, hGCGR-mmh; experiment: SPR Biacore T100, 25C, mAb captured, antigen flowed
Experimental: (§1) Measurements were conducted on a T100 Biacore instrument. Antibodies were captured onto the Biacore sensor chip surface via a covalently-linked anti-human kappa antibody capture surface, and the soluble GCGR proteins were applied to the surface either in a monovalent (hGCGR expressed with a myc-myc-hexa-histidine C-terminal tag) or bivalent (hGCGR and MfGCGR expressed with an N-terminal Fc fusion) format.
(§2) Binding dissociation equilibrium constants and dissociative half-lives were calculated from the kinetic rate constants as: KD=kd/kₐ; t_{1/2}=(In2/kd).

[2] = biological target: T3, mfGCGR-hFc (cynomolgus monkey (Macaca fascicularis)); experiment: as above
T3 construct: also called mfGCGR-N-terminal hFc
T3 sequence (chain, as listed by the source limits assumed): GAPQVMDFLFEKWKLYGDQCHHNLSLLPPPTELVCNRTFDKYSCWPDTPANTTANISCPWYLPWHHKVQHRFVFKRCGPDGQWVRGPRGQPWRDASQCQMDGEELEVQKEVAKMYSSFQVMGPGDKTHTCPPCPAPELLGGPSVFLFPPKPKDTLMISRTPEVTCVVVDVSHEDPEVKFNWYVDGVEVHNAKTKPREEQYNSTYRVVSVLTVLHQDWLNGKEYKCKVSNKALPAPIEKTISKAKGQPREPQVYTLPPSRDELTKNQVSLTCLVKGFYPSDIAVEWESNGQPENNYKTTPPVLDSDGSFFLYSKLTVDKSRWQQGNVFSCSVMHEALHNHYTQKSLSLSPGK
Experimental: as §1, §2

[3] = biological target: T4, hGCGR-hFc (human); experiment: as above
T4 construct: also called REGN316
Experimental: as §1, §2

[4] = biological target: T2, monkey (Macaca fascicularis) GCGR …; experiment: cell-based or functional assay
[5] = biological target: human GCGR (full-length, on HEK293 reporter cells) (human, UniProt P47871 27-477); experiment: cell-based or functional assay
[6] = biological target: T1, hGCGR-mmh; experiment: SPR Biacore T100, 37C, mAb captured, antigen flowed
Experimental: as §1, §2

[7] = biological target: T3, mfGCGR-hFc; experiment: as above
Experimental: as §1, §2

[8] = biological target: T4, hGCGR-hFc; experiment: as above
Experimental: as §1, §2

[9] = biological target: mouse GCGR (full-length, on HEK293 reporter cells) (mouse, UniProt Q61606 27-485); experiment: cell-based or functional assay
Chain of mouse GCGR (full-length, on HEK293 reporter cells) (Q61606 27-485 limits assumed): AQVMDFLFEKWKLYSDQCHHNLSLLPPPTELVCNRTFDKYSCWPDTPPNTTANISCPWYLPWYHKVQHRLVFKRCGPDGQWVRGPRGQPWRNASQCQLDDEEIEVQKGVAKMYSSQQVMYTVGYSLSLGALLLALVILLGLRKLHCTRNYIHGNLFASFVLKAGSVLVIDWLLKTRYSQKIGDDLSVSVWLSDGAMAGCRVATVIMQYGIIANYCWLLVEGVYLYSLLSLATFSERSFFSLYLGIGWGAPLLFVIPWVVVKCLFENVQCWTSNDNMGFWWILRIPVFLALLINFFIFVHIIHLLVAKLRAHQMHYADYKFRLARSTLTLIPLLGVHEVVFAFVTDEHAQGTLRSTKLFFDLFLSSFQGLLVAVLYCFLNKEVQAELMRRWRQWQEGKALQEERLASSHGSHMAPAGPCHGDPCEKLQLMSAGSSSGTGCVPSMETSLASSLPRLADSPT

[10] = biological target: rat GCGR (full-length, on transiently transfected HEK293 reporter cells) (rat, UniProt P30082 27-485); experiment: cell-based or functional assay
Chain of rat GCGR (full-length, on transiently transfected HEK293 reporter cells) (P30082 27-485 limits assumed): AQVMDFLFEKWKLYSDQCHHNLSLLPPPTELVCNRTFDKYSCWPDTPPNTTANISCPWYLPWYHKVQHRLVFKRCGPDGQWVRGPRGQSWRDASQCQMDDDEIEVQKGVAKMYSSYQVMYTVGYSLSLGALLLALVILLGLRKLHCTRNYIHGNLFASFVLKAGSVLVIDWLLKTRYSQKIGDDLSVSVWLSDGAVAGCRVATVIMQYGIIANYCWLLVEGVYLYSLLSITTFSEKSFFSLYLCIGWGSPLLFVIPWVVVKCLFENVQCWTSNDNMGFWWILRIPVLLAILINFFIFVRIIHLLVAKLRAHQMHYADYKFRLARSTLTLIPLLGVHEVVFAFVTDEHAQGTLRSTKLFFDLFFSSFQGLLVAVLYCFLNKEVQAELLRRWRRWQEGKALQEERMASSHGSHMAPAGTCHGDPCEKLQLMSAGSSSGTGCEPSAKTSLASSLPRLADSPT

| Binder | Kd [1] [nM] | T½ [1] [h] | koff [1] [s⁻¹] | kon [1] [M⁻¹ s⁻¹] | Kd [2] [nM] | T½ [2] [h] | koff [2] [s⁻¹] | kon [2] [M⁻¹ s⁻¹] | Kd [3] [nM] | T½ [3] [h] | koff [3] [s⁻¹] | kon [3] [M⁻¹ s⁻¹] | IC50, inhibition of 100 pM GCG-stimulated luciferase activity, mfGCGR reporter cells [4] [nM] | IC50, inhibition of 100 pM GCG-stimulated luciferase activity, hGCGR reporter cells [5] [nM] | Kd [6] [nM] | T½ [6] [h] | koff [6] [s⁻¹] | kon [6] [M⁻¹ s⁻¹] | Kd [7] [nM] | T½ [7] [h] | further results |
| --- | --- | --- | --- | --- | --- | --- | --- | --- | --- | --- | --- | --- | --- | --- | --- | --- | --- | --- | --- | --- | --- |
| H4H1765N (antibody, V domains shown, Anti-GCGR antibody from hybridoma; the controls are called isotype-matched hIgG4) VH: EEQLVESGGDLVQPGGSLRLSCAASGFTLSSYEMNWVRQAPGKGLEWVSYISRGGSLIHYTDSVKGRFTISRDNAKNSLYLQMNSLRAEDTAVYYCVRDPAARYHYYYHGMDVWGQGTTVTVSS VL: DIVMTQSPLSLPVTPGEPASISCRSSQSLLHNNGYNYLDWYLQKPGQSPQLLIYLGSSRASGVPDRFSGSGSGTDFILKISRVEAEDVGVYYCMQALQTPWTFGRGTKVEIK | 0.093 | 6.32 | 3.05e-05 | 326000 | ≤ 0.00156 | 192 | ≤ 1e-06 | 643000 | 0.0122 | 38.9 | 4.95e-06 | 410000 | 75.2 | 12.8 | 0.252 | 1.73 | 0.000111 | 441000 | 0.0164 | 13 | koff [7]: 1.48e-05 s⁻¹; kon [7]: 904000 M⁻¹ s⁻¹; Kd [8]: 0.0537 nM; T½ [8]: 5.4 h; koff [8]: 3.57e-05 s⁻¹; kon [8]: 664000 M⁻¹ s⁻¹ |
| H4H1327P (antibody, V domains shown, also called anti-GCGR (hIgG4) antibody designated H4H1327P) VH: EVQLVESGGGLVQPGGSLRLSCAASGFTFSNYLMNWVRQAPGKGLEWLANIQEDGIEKYYVDSVKGRFTISRDNAKNSLYLQMNSLRAEDTAVYYCAREPSHYDILTGYDYYYGMDVWGQGTTVTVS VL: DIQMTQSPSSLSASVGDRVTITCRASQGIRNDLGWYQQKPGKAPKRLIYAASSLQSGVPSRFSGSGSGTEFILTVSSLQPEDFATYYCLQYNSNPFTFGPGTKVDIK | 0.369 | 0.55 | 0.000352 | 952000 | 0.00902 | 13.4 | 1.44e-05 | 1.6e+06 | 0.0338 | 4.7 | 4.1e-05 | 1.21e+06 | 2.56 | 0.39 | 1.35 | 0.1 | 0.002 | 1.48e+06 | 0.0357 | 2.42 | IC50, inhibition of 100 pM GCG-stimulated luciferase activity, mGCGR reporter cells [9]: 1.04 nM; IC50, inhibition of 100 pM GCG-stimulated luciferase activity, rat GCGR reporter cells [10]: 0.88 nM; koff [7]: 7.94e-05 s⁻¹; kon [7]: 2.22e+06 M⁻¹ s⁻¹; Kd [8]: 0.157 nM; T½ [8]: 0.833 h; koff [8]: 0.000232 s⁻¹; kon [8]: 1.48e+06 M⁻¹ s⁻¹ |
| H4H1328P (antibody, V domains shown, Fully human anti-GCGR antibody; the controls are called isotype-matched hIgG4) VH: EVQLVESGGALVQPGGSLRLSCTASGFTFSNYDMHWVRQTTGKGLEWISAIDTAGDTYYPGSVKGRFTVSRENAKNSFYLQMNSLRAGDTAVYYCAREGKYYDILTGDYHYYGMDVWGQGTTVTVS VL: DIQMTQSPSSLSASVGDRVTITCRASQGIRNDLGWYQQKPGKAPKRLIYATSSLQSGVPSRFSGSGSGTEFTLTISSLQPEDFATYYCLQHNSYPLTFGGGTKLEIK | 2.06 | 0.0833 | 0.00212 | 1.03e+06 | 0.0529 | 2.28 | 8.46e-05 | 1.6e+06 | 0.201 | 0.85 | 0.000226 | 1.13e+06 | 2.73 | 0.24 | 6.67 | 0.0167 | 0.0108 | 1.61e+06 | 0.0353 | 2.68 | IC50, inhibition of 100 pM GCG-stimulated luciferase activity, mGCGR reporter cells [9]: 1.26 nM; IC50, inhibition of 100 pM GCG-stimulated luciferase activity, rat GCGR reporter cells [10]: 0.93 nM; koff [7]: 7.17e-05 s⁻¹; kon [7]: 2.03e+06 M⁻¹ s⁻¹; Kd [8]: 0.124 nM; T½ [8]: 1 h; koff [8]: 0.000192 s⁻¹; kon [8]: 1.55e+06 M⁻¹ s⁻¹ |
| H4H1345N (antibody, V domains shown, Anti-GCGR antibody from hybridoma; the controls are called isotype-matched hIgG4) VH: QVQLVQSGADVKKPGASVKVSCKVSGHILTDLSMHWVRQPPGKGLEWMAGFDPEEGKIIYAQKFQGRVTMTEDTSTDTAYMELSSLRSGDTAVYYCATSDILTGYYRDYYGLDVWGQGTTLTVSS VL: not shown | 0.431 | 0.567 | 0.000344 | 798000 | 0.0254 | 7.95 | 2.42e-05 | 953000 | 0.0724 | 3.37 | 5.72e-05 | 790000 | 3.86 | 2.22 | 2.12 | 0.1 | 0.00197 | 928000 | 0.101 | 1.52 | IC50, inhibition of 100 pM GCG-stimulated luciferase activity, rat GCGR reporter cells [10]: 8.07 nM; koff [7]: 0.000128 s⁻¹; kon [7]: 1.27e+06 M⁻¹ s⁻¹; Kd [8]: 0.324 nM; T½ [8]: 0.617 h; koff [8]: 0.000309 s⁻¹; kon [8]: 952000 M⁻¹ s⁻¹ |
| H4H1617N (antibody, V domains shown, Anti-GCGR antibody from hybridoma; the controls are called isotype-matched hIgG4) VH: QVQLVQSGADVKKPGASVKVSCKVSGHILTDLSMHWVRQAPGKGLEWMGGFDPEEGEIIYAQKFQGRVTMTEDTSTDTAYMELSSLRSGDTAVYYCATSDILTGYYRDYYGLDVWGQGTTLTVSS VL: not shown | 0.187 | 0.967 | 0.000199 | 1.07e+06 | 0.011 | 13.9 | 1.38e-05 | 1.26e+06 | 0.0389 | 6.05 | 3.18e-05 | 818000 | 4.24 | 1.25 | 0.943 | 0.167 | 0.00113 | 1.2e+06 | 0.0586 | 2.22 | IC50, inhibition of 100 pM GCG-stimulated luciferase activity, rat GCGR reporter cells [10]: 3.66 nM; koff [7]: 8.72e-05 s⁻¹; kon [7]: 1.49e+06 M⁻¹ s⁻¹; Kd [8]: 0.181 nM; T½ [8]: 0.9 h; koff [8]: 0.000214 s⁻¹; kon [8]: 1.18e+06 M⁻¹ s⁻¹ |
